Changes are numbered by the printed parent chain. Each block holds one molecule with its values, some of them ahead of it.
Legend:
human cMET [1] = molecular target: T1, human cMET (human, UniProt P08581 25-932, limits assumed); experiment: SPR (Met Binding KD)
T1 construct: also called hMET; HGFR

human cMET [2] = molecular target: T1, human cMET; experiment: ELISA, species cross-reactivity, antibody titrated on human cMET; x axis printed -8 to 2 with ug/mL (log10)
[3] = molecular target: T2, monkey cMET (Macaca fascicularis, Cynomolgus Macaque) (Cynomolgus Macaque (Macaca fascicularis), UniProt A0A2K5UM36 25-932); experiment: ELISA, species cross-reactivity, antibody titrated on cynomolgus cMET; x axis printed -8 to 2 with ug/mL (log10)
T2 construct: also called Cyno cMET; NHP
T2 sequence (A0A2K5UM36 entry or part of it limits assumed): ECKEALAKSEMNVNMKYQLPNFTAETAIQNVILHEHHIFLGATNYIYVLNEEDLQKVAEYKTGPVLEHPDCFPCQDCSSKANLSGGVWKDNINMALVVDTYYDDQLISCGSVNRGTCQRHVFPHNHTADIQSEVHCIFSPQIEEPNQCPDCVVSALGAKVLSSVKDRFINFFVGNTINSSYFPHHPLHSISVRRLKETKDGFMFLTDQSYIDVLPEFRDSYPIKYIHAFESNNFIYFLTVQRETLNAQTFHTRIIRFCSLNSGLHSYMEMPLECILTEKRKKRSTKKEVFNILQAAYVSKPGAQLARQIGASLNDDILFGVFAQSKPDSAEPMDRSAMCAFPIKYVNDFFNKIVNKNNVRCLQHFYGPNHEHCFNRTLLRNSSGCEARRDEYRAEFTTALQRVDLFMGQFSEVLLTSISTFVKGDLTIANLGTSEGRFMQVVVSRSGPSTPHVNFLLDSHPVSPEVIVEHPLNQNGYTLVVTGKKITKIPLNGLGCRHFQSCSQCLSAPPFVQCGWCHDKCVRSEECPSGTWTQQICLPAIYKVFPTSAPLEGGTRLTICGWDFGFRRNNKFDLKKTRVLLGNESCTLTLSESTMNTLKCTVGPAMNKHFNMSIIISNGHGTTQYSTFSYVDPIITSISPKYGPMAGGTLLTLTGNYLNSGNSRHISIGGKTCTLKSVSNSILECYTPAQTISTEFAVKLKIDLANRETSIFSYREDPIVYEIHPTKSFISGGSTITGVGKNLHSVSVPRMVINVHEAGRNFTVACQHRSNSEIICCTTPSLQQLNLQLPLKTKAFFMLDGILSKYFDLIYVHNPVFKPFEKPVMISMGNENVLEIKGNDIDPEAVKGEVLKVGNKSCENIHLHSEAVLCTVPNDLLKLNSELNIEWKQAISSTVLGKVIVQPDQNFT

[4] = molecular target: T3, Recombinant Human c-Met-10x His (human, UniProt P08581 25-932); experiment: MET Binding ELISA on plate-bound human cMET, direct binding; the half-maximal value is printed as IC50
T3 construct: Made in-house
T3 sequence (P08581 other isoform, or with tags, fused parts or gaps limits assumed): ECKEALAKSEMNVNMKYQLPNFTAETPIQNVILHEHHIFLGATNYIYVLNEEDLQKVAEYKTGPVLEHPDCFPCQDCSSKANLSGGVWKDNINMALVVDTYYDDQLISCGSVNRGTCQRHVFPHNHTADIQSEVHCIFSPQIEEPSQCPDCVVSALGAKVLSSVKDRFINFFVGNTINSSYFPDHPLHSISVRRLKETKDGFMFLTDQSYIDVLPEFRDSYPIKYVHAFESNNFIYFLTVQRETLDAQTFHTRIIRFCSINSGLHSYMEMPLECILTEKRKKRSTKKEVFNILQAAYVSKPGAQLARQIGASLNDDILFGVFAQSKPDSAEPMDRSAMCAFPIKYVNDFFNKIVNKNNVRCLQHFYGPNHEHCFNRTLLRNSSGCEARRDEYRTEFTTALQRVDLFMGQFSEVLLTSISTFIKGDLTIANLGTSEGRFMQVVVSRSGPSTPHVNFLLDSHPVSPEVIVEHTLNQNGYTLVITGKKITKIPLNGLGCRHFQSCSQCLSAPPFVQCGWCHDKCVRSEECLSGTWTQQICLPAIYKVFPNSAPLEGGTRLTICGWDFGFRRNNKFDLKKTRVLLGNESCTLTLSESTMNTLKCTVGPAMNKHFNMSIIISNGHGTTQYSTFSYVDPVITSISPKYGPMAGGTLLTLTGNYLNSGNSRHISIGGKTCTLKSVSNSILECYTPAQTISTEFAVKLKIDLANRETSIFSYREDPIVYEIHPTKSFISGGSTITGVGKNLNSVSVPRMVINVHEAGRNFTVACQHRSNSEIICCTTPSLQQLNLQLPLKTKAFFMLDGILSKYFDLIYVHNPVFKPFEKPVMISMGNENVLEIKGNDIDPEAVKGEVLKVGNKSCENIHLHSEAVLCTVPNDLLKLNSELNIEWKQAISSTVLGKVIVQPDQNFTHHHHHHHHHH
From the text: Relative binding strength is indicated by luminescence (y-axis).

rat cMET = molecular target: T4, rat cMET (rat, UniProt P97523 25-935, limits assumed); experiment: ELISA on rat cMET, ratio against the parental antibody
T4 construct: also called rMET
T4 sequence (P97523 25-935 limits assumed): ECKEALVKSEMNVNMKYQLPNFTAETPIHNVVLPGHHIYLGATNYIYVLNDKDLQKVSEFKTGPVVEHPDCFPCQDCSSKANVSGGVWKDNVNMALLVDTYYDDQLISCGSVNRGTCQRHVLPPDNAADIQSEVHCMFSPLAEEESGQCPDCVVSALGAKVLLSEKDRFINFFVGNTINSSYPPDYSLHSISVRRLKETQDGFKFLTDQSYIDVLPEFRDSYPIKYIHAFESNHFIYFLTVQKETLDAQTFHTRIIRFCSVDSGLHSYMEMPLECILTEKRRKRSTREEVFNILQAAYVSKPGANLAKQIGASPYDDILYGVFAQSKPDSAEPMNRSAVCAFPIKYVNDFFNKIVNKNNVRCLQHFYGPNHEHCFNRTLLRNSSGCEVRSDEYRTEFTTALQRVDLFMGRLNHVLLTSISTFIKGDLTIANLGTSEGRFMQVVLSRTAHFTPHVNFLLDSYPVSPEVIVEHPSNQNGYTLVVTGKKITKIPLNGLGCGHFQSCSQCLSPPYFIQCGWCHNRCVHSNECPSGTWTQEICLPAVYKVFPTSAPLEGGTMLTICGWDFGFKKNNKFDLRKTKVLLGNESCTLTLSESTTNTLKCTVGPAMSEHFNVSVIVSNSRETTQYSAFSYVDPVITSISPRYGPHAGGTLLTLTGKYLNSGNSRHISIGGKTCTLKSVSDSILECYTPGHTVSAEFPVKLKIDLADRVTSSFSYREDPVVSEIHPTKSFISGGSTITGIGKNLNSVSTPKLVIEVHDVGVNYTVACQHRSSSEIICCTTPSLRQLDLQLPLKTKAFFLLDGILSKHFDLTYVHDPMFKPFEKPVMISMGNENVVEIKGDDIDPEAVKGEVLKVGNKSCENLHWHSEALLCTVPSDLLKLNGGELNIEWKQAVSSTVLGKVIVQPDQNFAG

human cMET [5] = molecular target: T1, human cMET; experiment: ELISA on human cMET, ratio against the parental antibody

T1 sequence (P08581 25-932 limits assumed): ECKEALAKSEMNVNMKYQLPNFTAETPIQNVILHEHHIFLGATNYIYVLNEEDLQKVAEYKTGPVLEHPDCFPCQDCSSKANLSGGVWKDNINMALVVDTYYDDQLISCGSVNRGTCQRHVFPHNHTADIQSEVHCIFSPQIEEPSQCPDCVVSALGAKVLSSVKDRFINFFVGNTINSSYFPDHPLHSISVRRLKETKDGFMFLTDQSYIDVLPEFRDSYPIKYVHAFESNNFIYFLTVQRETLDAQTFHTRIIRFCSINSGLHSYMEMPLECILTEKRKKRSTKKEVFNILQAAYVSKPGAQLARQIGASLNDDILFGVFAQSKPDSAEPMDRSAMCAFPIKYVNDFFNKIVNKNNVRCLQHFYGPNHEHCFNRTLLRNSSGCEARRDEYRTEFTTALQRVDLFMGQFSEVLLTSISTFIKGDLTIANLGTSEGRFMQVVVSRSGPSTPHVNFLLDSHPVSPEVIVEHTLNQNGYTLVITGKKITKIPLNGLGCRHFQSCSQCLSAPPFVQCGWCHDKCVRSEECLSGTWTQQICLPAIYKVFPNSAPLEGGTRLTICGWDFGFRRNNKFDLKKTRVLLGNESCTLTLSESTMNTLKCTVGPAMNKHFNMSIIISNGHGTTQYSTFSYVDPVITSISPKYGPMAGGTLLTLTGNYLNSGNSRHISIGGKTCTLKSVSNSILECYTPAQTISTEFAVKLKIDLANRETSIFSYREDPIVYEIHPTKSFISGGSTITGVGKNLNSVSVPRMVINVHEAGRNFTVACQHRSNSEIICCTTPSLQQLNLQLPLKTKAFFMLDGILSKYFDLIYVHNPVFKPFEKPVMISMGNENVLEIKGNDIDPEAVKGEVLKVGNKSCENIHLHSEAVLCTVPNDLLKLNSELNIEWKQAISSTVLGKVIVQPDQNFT

Kd (human cMET [1]): 0.85 nM
Molecule: 5D5 (agonist Met-mAb antibody, agonist positive control)

EC50 (read off the curve) (human cMET [2]): ~0.2 µg/mL
EC50 (read off the curve) [3]: ~0.2 µg/mL
B1: F6B1P3D12 mouse monoclonal anti-cMET antibody (antibody, V domains shown)
VH: QVQLQQSGAELAKPGASVKMSCRASGYTFTSYWMHWVKQRPGQGLDWIGYIKPSTDNTEYNQKFKDKATLTADKSSSTAYMQLSSLTSEDSAVYYCARSYGNYPLMDYWGQGTSVTVSS
VL: QIVLTQSPAIMSASPGEKVTLTCSASSSVTSNYLYWYQQKPGSSPKLWIYSTSNLASGVPARFSGSGSGTSYSLTISSMEAEDAASYFCHQWSSYPPTFGSGTKLEIKR
notes: Mouse hybridoma antibody

EC50 (read off the curve) (human cMET [2]): ~0.2 µg/mL
EC50 (read off the curve) [3]: ~0.2 µg/mL
B2: F6B1P1E2 mouse monoclonal anti-cMET antibody (antibody, V domains shown)
VH: B1 VH with R23K, D46E, K52N, N57Y, S77T, A97V
VL: B1 VL with T30S, Q38H, A61V
notes: Mouse hybridoma antibody

IC50 [4]: 0.036 µg/mL
B3: hD12-VI (antibody hD12 attached to the payload of chemical formula VI, stochastic conjugation) (antibody, human IgG2, kappa, V domains shown)
VH: QVQLVQSGAEVKKPGASVKVSCKASGYTFTSYWMHWVKQAPGQGLDWIGYIKPSTDNTEYNQKFKDKATLTADKSTSTAYMELSSLRSEDTAVYYCARSYGNYPLMDYWGQGTTVTVSS
VL: B1 VL with M11L, A13L, K18R, V19A, T22S, W48L, S73T, M79L
modifications: payload possibly on cysteines (random positions); payload of chemical formula VI linked through maleimide to cysteine thiols at random positions
notes: Antibody-drug conjugate; also called hD12-vc-VI

IC50 [4]: 0.052 µg/mL
B4: hD12-II (antibody hD12 attached to the payload of chemical formula II, stochastic conjugation) (antibody, human IgG2, kappa, V domains shown)
VH: B3 VH
VL: B1 VL with M11L, A13L, K18R, V19A, T22S, W48L, S73T, M79L
modifications: payload possibly on cysteines (random positions); payload of chemical formula II (pyrrolobenzodiazepine toxin and linking group) linked through maleimide to cysteine thiols at random positions
notes: also called hD12-vc-II

EC50 (read off the curve) (human cMET [2]): ~0.2 µg/mL
EC50 (read off the curve) [3]: ~0.2 µg/mL
B5: F6BP2D4 mouse monoclonal anti-cMET antibody (antibody, V domains shown)
VH: B1 VH with R23K, D46E, K52N, N57Y, T58I, D73G, Y103F
VL: B1 VL with T30S, A61V
notes: Mouse hybridoma antibody

IC50 [4]: 0.103 µg/mL
B6: hD12-XI (antibody hD12 attached to the payload of chemical formula XI, stochastic conjugation) (antibody, human IgG2, kappa, V domains shown)
VH: B3 VH
VL: B1 VL with M11L, A13L, K18R, V19A, T22S, W48L, S73T, M79L
modifications: payload possibly on cysteines (random positions); payload of chemical formula XI linked through maleimide to cysteine thiols at random positions
notes: Antibody-drug conjugate; also called hD12-vc-XI

ELISA rMET vs parental (rat cMET): 1.2
ELISA hMET vs parental (human cMET [5]): 1.7
B7: humanized P3D12 antibody, HC SEQ ID NO: 105 (P3D12 VH-fra) / LC SEQ ID NO: 46 (P3D12 VL-ven) (antibody, V domains shown)
VH: B3 VH with V5Q, A40R, K67R, A68V, E82Q, S85N, R87I, T114S
VL: B1 VL with I10T, K18R, T22S, K46R, S73T, S78R, A81P

IC50 [4]: 0.058 µg/mL
B8: hD12-IV (antibody hD12 attached to the payload of chemical formula IV, stochastic conjugation) (antibody, human IgG2, kappa, V domains shown)
VH: B3 VH
VL: B1 VL with M11L, A13L, K18R, V19A, T22S, W48L, S73T, M79L
modifications: payload possibly on cysteines (random positions); payload of chemical formula IV linked through maleimide to cysteine thiols at random positions
notes: Antibody-drug conjugate; also called hD12-vc-IV

ELISA rMET vs parental (rat cMET): 0.9
ELISA hMET vs parental (human cMET [5]): 0.7
B9: humanized P3D12 antibody, HC SEQ ID NO: 108 (P3D12 VH-cdr) / LC SEQ ID NO: 47 (P3D12 VL-fra) (antibody, V domains shown)
VH: B3 VH
VL: B1 VL with M11L, A13L, K18R, V19A, T22S, W48L, S73T, M79L

IC50 [4]: 0.042 µg/mL
B10: hD12-VII (antibody hD12 attached to the payload of chemical formula VII, stochastic conjugation) (antibody, human IgG2, kappa, V domains shown)
VH: B3 VH
VL: B1 VL with M11L, A13L, K18R, V19A, T22S, W48L, S73T, M79L
modifications: payload possibly on cysteines (random positions); payload of chemical formula VII linked through maleimide to cysteine thiols at random positions
notes: Antibody-drug conjugate; also called hD12-vc-VII

ELISA rMET vs parental (rat cMET): 0.5
ELISA hMET vs parental (human cMET [5]): 1
B11: humanized P3D12 antibody, HC SEQ ID NO: 107 (P3D12 VH-abb/sdr) / LC SEQ ID NO: 47 (P3D12 VL-fra) (antibody, V domains shown)
VH: B3 VH with I48M, N61A, K65Q, D66G, K67R, A68V
VL: B1 VL with M11L, A13L, K18R, V19A, T22S, W48L, S73T, M79L

ELISA rMET vs parental (rat cMET): 1.4
ELISA hMET vs parental (human cMET [5]): 1.7
B12: humanized P3D12 antibody, HC SEQ ID NO: 105 (P3D12 VH-fra) / LC SEQ ID NO: 47 (P3D12 VL-fra) (antibody, V domains shown)
VH: B3 VH with V5Q, A40R, K67R, A68V, E82Q, S85N, R87I, T114S
VL: B1 VL with M11L, A13L, K18R, V19A, T22S, W48L, S73T, M79L

ELISA rMET vs parental (rat cMET): 2.7
ELISA hMET vs parental (human cMET [5]): 1.3
B13: humanized P3D12 antibody, HC SEQ ID NO: 108 (P3D12 VH-cdr) / LC SEQ ID NO: 48 (P3D12 VL-abb/sdr) (antibody, V domains shown)
VH: B3 VH
VL: QIVLTQSPATLSLSPGERATLSCRASQSVTSNYLYWYQQKPGSSPRLLIYSTSNLASGVPARFSGSGSGTDYTLTISRLEPEDFASYFCHQWSSYPPTFGSGTKLEIKR

ELISA rMET vs parental (rat cMET): 2
ELISA hMET vs parental (human cMET [5]): 1
B14: humanized P3D12 antibody, HC SEQ ID NO: 108 (P3D12 VH-cdr) / LC SEQ ID NO: 49 (P3D12 VL-cdr) (antibody, V domains shown)
VH: B3 VH
VL: B13 VL with R24S, Q27S, D71S

ELISA rMET vs parental (rat cMET): 1
ELISA hMET vs parental (human cMET [5]): 1.1
B15: humanized P3D12 antibody, HC SEQ ID NO: 108 (P3D12 VH-cdr) / LC SEQ ID NO: 46 (P3D12 VL-ven) (antibody, V domains shown)
VH: B3 VH
VL: B1 VL with I10T, K18R, T22S, K46R, S73T, S78R, A81P

ELISA rMET vs parental (rat cMET): 2.3
ELISA hMET vs parental (human cMET [5]): 1.7
B16: humanized P3D12 antibody, HC SEQ ID NO: 105 (P3D12 VH-fra) / LC SEQ ID NO: 49 (P3D12 VL-cdr) (antibody, V domains shown)
VH: B3 VH with V5Q, A40R, K67R, A68V, E82Q, S85N, R87I, T114S
VL: B13 VL with R24S, Q27S, D71S

ELISA rMET vs parental (rat cMET): 3.8
ELISA hMET vs parental (human cMET [5]): 1.8
B17: humanized P3D12 antibody, HC SEQ ID NO: 105 (P3D12 VH-fra) / LC SEQ ID NO: 48 (P3D12 VL-abb/sdr) (antibody, V domains shown)
VH: B3 VH with V5Q, A40R, K67R, A68V, E82Q, S85N, R87I, T114S
VL: B13 VL

EC50 (read off the curve) (human cMET [2]): ~0.2 µg/mL
EC50 (read off the curve) [3]: ~0.2 µg/mL
Kd (human cMET [1]): 0.18 nM
B18: F6AP8E2 mouse monoclonal anti-cMET antibody (antibody, V domains shown)
VH: EVQLQQSGAELVRPGALVKLSCKASGFNINDYFMHWVKQRPEQGLEWIGWIDPENGNTIYDPKFQGKASITADTSSNTAYLQLSSLTSEDTAVYYCARGGNYLRESYYYAMDYWGQGTSVTVSS
VL: DIVMTQSPKSMSMSVGERVTLSCKASENVGTYVSWYQQKPDQSPKLLIYGASNRYTGVPDRFTGSGSATDFTLTISSVQAEDLADYHCGQSYSYPLTFGAGTKLELKR
notes: Mouse hybridoma antibody

Reference: patent publication US20210163604A1 (MITSUBISHI TANABE PHARMA, published 2021)
